# Reference: publication PMC13324855
# Where “and” joins values, the source holds several entries; their conditions need not be identical. Identical values can stand only once.
# Tests used:
# [1] = target: SARS-CoV-2 spike receptor-binding domain, Wuhan-Hu-1 (WT RBD) (SARS-CoV-2) (UniProt P0DTC2); experiment: flow cytometry on cells
# [2] = target: SARS-CoV-1 receptor-binding domain (RBD), wild type (SARS-CoV-1); experiment: flow cytometry on cells
substance,measurement,setting,value
"angiotensin converting enzyme 2 (ACE2) peptidase domain, ACE2D (domain or fragment)",EC25,[1],2 nM
same,Kd,[2],1.51 nM and 1.72 nM and 1.9 nM
